Experimental data: patent publication US20010041670A1 (published 2001)

Assays:
Thrombospondin-1 (TSP-1) [1] = target: T1, Thrombospondin-1 (TSP-1) (human, UniProt P07996 19-1170); assay: cell-based or functional assay
Thrombospondin-1 (TSP-1) [2] = target: T1, Thrombospondin-1 (TSP-1); assay: solid phase competition: 125I-TSP-1 binding to immobilized HRGP
Method: Solid phase binding assays were performed as described (18). […] Non-specific binding was determined by carrying out binding in the presence of excess unlabeled ligand.

T1 sequence (P07996 19-1170): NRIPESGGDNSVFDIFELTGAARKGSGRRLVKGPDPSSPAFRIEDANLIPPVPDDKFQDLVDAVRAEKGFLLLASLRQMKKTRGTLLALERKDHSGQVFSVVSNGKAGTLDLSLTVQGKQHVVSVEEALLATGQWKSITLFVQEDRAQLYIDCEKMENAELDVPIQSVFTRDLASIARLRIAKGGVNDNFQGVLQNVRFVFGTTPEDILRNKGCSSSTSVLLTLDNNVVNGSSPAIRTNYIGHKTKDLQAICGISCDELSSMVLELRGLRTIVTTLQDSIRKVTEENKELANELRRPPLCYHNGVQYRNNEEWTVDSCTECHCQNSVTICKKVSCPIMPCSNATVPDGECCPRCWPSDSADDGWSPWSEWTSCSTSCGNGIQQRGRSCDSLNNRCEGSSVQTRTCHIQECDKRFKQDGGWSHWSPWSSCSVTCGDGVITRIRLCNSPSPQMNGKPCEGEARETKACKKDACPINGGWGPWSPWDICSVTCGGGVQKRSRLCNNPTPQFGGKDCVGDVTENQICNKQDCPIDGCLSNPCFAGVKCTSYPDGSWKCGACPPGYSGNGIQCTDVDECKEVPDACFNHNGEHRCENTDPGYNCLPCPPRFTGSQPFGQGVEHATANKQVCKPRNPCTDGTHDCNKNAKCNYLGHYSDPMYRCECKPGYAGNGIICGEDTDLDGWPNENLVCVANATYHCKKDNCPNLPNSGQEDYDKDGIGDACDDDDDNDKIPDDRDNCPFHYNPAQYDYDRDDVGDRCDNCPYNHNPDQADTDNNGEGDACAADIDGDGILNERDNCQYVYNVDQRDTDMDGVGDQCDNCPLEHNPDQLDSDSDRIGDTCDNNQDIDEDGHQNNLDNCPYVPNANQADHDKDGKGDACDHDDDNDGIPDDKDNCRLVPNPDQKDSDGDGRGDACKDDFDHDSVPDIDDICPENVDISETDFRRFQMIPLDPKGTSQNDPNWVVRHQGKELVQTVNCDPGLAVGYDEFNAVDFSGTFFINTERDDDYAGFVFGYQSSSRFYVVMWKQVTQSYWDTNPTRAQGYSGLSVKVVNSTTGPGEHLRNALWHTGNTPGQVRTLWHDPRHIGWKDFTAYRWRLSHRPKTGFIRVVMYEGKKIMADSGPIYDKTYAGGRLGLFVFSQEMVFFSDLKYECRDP

B1: Histidine-rich glycoprotein (HRGP) (other, human, UniProt P04196 19-525, looked up)
chain: VSPTDCSAVEPEAEKALDLINKRRRDGYLFQLLRIADAHLDRVENTTVYYLVLDVQESDCSVLSRKYWNDCEPPDSRRPSEIVIGQCKVIATRHSHESQDLRVIDFNCTTSSVSSALANTKDSPVLIDFFEDTERYRKQANKALEKYKEENDDFASFRVDRIERVARVRGGEGTGYFVDFSVRNCPRHHFPRHPNVFGFCRADLFYDVEALDLESPKNLVINCEVFDPQEHENINGVPPHLGHPFHWGGHERSSTTKPPFKPHGSRDHHHPHKPHEHGPPPPPDERDHSHGPPLPQGPPPLLPMSCSSCQHATFGTNGAQRHSHNNNSSDLHPHKHHSHEQHPHGHHPHAHHPHEHDTHRQHPHGHHPHGHHPHGHHPHGHHPHGHHPHCHDFQDYGPCDPPPHNQGHCCHGHGPPPGHLRRRGPGKGPRPFHCRQIGSVYRLPPLRKGEVLPLPEANFPSFPLPHHKHPLKPDNQPFPQSVSESCPGKFKSGFPQVSMFFTHTFPK
area of neovascularization relative to bFGF alone, corneal assay, pellets with bFGF, TSP-1 and HRGP (100 ng, HRGP:TSP-1 molar ratio 3:1) (Thrombospondin-1 (TSP-1) [1]): 82.5%

B2: CD36 FP298-439 (other, UniProt P16671 298-439, looked up)
chain: KAFASPVENPDNYCFCTEKIISKNCTSYGVLDISKCKEGRPVYISLPHFLYASPDVSEPIDGLNPNEEEHRTYLDIEPITGFTLQFAKRLQVNLLVKPSEKIQVLKNLKRNYIVPILWLNETGTIGDEKANMFRSQVTGKIN
notes: also called GST-CD36 fusion protein; not shown: Glutathione-S-transferase fusion partner
binding result (Thrombospondin-1 (TSP-1) [2]): no binding
